Measurements reported in US20140050743A1, “BINDING PROTEINS TO INHIBITORS OF COAGULATION FACTORS” (BAYER INTELLECTUAL PROPERTY GMBH, priority 2011, published 2014).
Positions count from the first letter of the chain named.

B1: M14-G07-27: antibody, Vh SEQ ID NO: 179, Vl SEQ ID NO: 180 (antibody, listed as Homo Sapiens, V domains shown)
VH: EVQLLESGGGLVQPGGSLRLSCAASGFTFSSYAMSWVRQAPGKGLEWVGGISGSGGSTYYADSVKGRFTISRDNSKNTLYLQMNSLRAEDTAVYYCARQGRTSFYLDVWGQGTLVTVSS
VL: QSVLTQPPSASGTPGQRVTISCSGSSSNIGAYYVYWYQQLPGTAPKLLIYDNNQRPSGVPDRFSGSKSGTSASLAISGLRSEDEADYYCVAWDDSYSGHWVFGGGTKLTVL
B2: M14-G07-2: antibody, Vh SEQ ID NO: 129, Vl SEQ ID NO: 130 (antibody, listed as Homo Sapiens, V domains shown)
VH: B1 VH
VL: B1 VL with S23C, S27R, A31S, Y96W, H99T
B3: M14-G07-33: antibody, Vh SEQ ID NO: 191, Vl SEQ ID NO: 192 (antibody, listed as Homo Sapiens, V domains shown)
VH: B1 VH with T28R
VL: B1 VL with S27R, Y32F, D94W
B4: M14-G07-1: antibody, Vh SEQ ID NO: 127, Vl SEQ ID NO: 128 (antibody, listed as Homo Sapiens, V domains shown)
VH: B1 VH with T28R
VL: B1 VL with S27R, A31S, Y32F, Y96W, H99T
B5: M14-G07-28: antibody, Vh SEQ ID NO: 181, Vl SEQ ID NO: 182 (antibody, listed as Homo Sapiens, V domains shown)
VH: B1 VH
VL: B1 VL with A31S
B6: M14-G07-29: antibody, Vh SEQ ID NO: 183, Vl SEQ ID NO: 184 (antibody, listed as Homo Sapiens, V domains shown)
VH: B1 VH with T28R, G49S
VL: B1 VL with D94W, Y96W, H99T
B7: M14-G07-31: antibody, Vh SEQ ID NO: 187, Vl SEQ ID NO: 188 (antibody, listed as Homo Sapiens, V domains shown)
VH: B1 VH
VL: B1 VL with Y32F, D94W, Y96L, H99T
B8: M14-G07-30: antibody, Vh SEQ ID NO: 185, Vl SEQ ID NO: 186 (antibody, listed as Homo Sapiens, V domains shown)
VH: B1 VH with G49S
VL: B1 VL with S27R, A31S, Y32F, Y96L
B9: M14-G07-34: antibody, Vh SEQ ID NO: 193, Vl SEQ ID NO: 194 (antibody, listed as Homo Sapiens, V domains shown)
VH: B1 VH with T28R
VL: B1 VL with S26T, A31S, N53R, Y96L, H99T
B10: M14-G07-32: antibody, Vh SEQ ID NO: 189, Vl SEQ ID NO: 190 (antibody, listed as Homo Sapiens, V domains shown)
VH: B1 VH with T28R
VL: B1 VL with N53R, Y96L
B11: M14-G07-37: antibody, Vh SEQ ID NO: 199, Vl SEQ ID NO: 200 (antibody, listed as Homo Sapiens, V domains shown)
VH: B1 VH with G49S, Q99E, R101E
VL: B1 VL with A31S, Y96W

assay: ELISA-based activity assay of antibody variants without a competition step; assay type: binding; parameters: key: +++: Variants with an average ratio above reference plus 2×SD; +/−: variants with a ratio below reference minus 2×SD; ++: All variants with a performance in between both thresholds; −: Variants with a ratio below 0.5; conditions: Table 10, multiple substitutions within M14-G07, variant to reference ratio (reference 2-fold improved over wt)
Description: To determine the activity of the mutated antibody variants on compound from Example 1K an equilibrium or dissociation limited ELISA assay format was used. Briefly, MTP plates (Nunc Maxisorp black, 460518) were coated with 4 μg/ml streptavidin (Calbiochem, 189730) diluted in coating buffer (Candor Bioscience GmbH, 121500) and incubated over night at 4° C. After washing with PBST, plates were blocked with 100% Smart Block (Candor Bioscience GmbH, 113500) in PBST for 1 h at room temperature and the washing step was repeated. Plates were incubated with compound from Example 1K at varying concentrations (0.3-200 nM) for 1 h at 37° C., washed with PBST and antibody fragments were immobilized by adding 25 μl of the crude bacterial cultures for 1 h at room temperature. After washing with PBST a competition step or the immediate detection was performed. […] For the detection of the residually bound Fabs a HRP-coupled anti-lambda antibody (Sigma, A5175) diluted in 10% Smart Block in PBST was added for 1 h at room temperature. After washing 10 μM Amplex Red (Invitrogen, A12222) were added and incubated for 10 to 30 min at room temperature followed by measurement of the fluorescence signal.
Provided in Table 9 are several examples of single and/or double amino acid substitutions introduced into the heavy and/or the light chain of M14-G07 (wt). Performance of the variants was analyzed in quadruples in the ELISA without a competition step and the FXa deinhibition assay (FXa DIA). In the ELISA, averages were calculated and normalized to the respective average expression level. Overall performance of variants was evaluated by comparing the variant to wt ratio from 2-3 independent experiments. Variants with an average ratio above wt plus 2×SD (standard deviation of the ratio) were considered as improved and are marked with “++”, whereas variants with a ratio below wt minus 2×SD were considered as reduced in their binding affinity and are marked with “−”. All variants with a performance in between both thresholds are marked with “+/−”. Variants with average fluorescence counts below the negative control (non-expressing cells) plus 3×SD were considered as non-binding and marked with “−−” with none of the variants fulfilling this criteria. In the FXa deinhibition assay averages were calculated and overall performance of variants was evaluated by comparing the variant to wt ratio from 2-3 independent experiments. Variants with an average ratio above wt plus 2×SD were considered as improved and are marked with “++”, whereas variants with a ratio below wt minus 2×SD were considered as either reduced in their binding affinity or non-binding and are marked with “−−”. All variants with a performance in between both thresholds are marked with “+/−”. Variants not analyzed are marked with “nd” (not determined). CDRs were defined according to Kabat.
Provided in Table 10 are examples of combined amino acid substitutions within M14-G07 antibodies. While not every combination is provided in Table 10, it is contemplated that the anti-rivaroxaban antibody may comprise any combination of modifications provided. Variant performance was analyzed in quadruples in the ELISA without a competition step. Averages were calculated, average background signals determined on a streptavidin coated plate without compound from Example 1K were subtracted if the compound from Example 1K concentration used for coating was below 10 nM and signals were normalized to the respective average expression level. Overall performance of variants was evaluated by comparing the variant to reference ratio from 2-3 independent experiments using a 2-fold improved reference variant as compared to wt. Variants with an average ratio above reference plus 2×SD are marked with “+++”, whereas variants with a ratio below reference minus 2×SD are marked with “+/−”. All variants with a performance in between both thresholds are marked with “++”. […]

**Q.** With B1 as the molecule, how does the ELISA read?
**A.** Its ELISA is “+++”.

**Q.** With B2 as the molecule, how does the ELISA read?
**A.** Its ELISA is “+++”.

**Q.** Which ELISA does the source give for B3 here?
**A.** The ELISA was “+++”.

**Q.** Which ELISA does the source give for B4 here?
**A.** Its ELISA is “+++”.

**Q.** With B5 as the molecule, how does the ELISA read?
**A.** The ELISA was “+++”.

**Q.** For B6, which ELISA is on record?
**A.** Its ELISA is “+++”.

**Q.** For B7, which ELISA is on record?
**A.** Its ELISA is “+++”.

**Q.** For B8, which ELISA is on record?
**A.** Its ELISA is “+++”.

**Q.** With B9 as the molecule, how does the ELISA read?
**A.** Its ELISA is “+++”.

**Q.** For B10, which ELISA is on record?
**A.** Its ELISA is “+++”.

**Q.** With B11 as the molecule, how does the ELISA read?
**A.** Its ELISA is “+++”.
